Laboratory results taken from patent US20070293656A1, “COLLAGEN BINDING PEPTIDES” (Epix Pharmaceuticals, Inc., priority 2005, published 2007).
Values joined by “and” are separate entries in the source; they are usually repeats but may differ in a detail not shown here. Equal values may be shown once. Read-outs that look alike come from different tables or passages of the source. Values belong to the molecule of their own block, whether it stands above or below them. Bridge positions count the residues as written; N and C are the ends. Square brackets hold non-standard residues; d marks the D form. Primed or numbered codes have the meaning given here. Side chains are listed from the residue outwards. Ends that are not written are not given here. * marks the point of attachment. Bip = N[C@@H](Cc1ccc(-c2ccccc2)cc1)C(=O)O; Gd^T = not defined here; Gd^T″ = GdDTPA-thiourea; Cbz = O=C(OCc1ccccc1)*; Dap = NC[C@H](N)C(=O)O

Columns and labels:
[1] = system: C57BL/6 mouse; conditions: 25 μmol/kg i.v. bolus
[2] = system: C57BL/6 mouse; conditions: 7-day old infarction, 25 μmol/kg i.v. bolus
[3] = 10 μmol/kg
[4] = system: C57BL/6 mice
[5] = system: perfused Langendorff rat heart; assay: Equilibrium binding to perfused Langendorff rat heart
Experimental: After deep anesthesia with pentobarbital (80 mg/kg ip), the chest cavity of a male Sprague Dawley rat (300 g) was opened, retracted and the heart was removed immediately and placed in an ice-cold normal Krebs-Henseleit (K-H) solution (NaCl, 118 mM; KCl, 4.7 mM; CaCl2, 2.5 mM; MgSO4, 1.2 mM; KH2PO4, 1.2 mM; NaHCO3, 25 mM; glucose, 5.5 mM). A K-H buffer filled 20 Gauge needle was inserted into the apex of the heart penetrating into the bottom of the chamber. This was attached to a pressure transducer used to record and monitor heart function. Perfusion pressure (˜60 mmHg) was monitored using a second transducer. The heart was perfused at a constant flow rate of 10-12 mL/min with 37° C. […]
Two peptide test articles, a high collagen binding peptide (SEQ ID NO: 144) and a low collagen binding peptide (SEQ ID NO: 173), are compared to GdDTPA. […] The amount of radioactivity added to the buffer solution was 1-5 μCi.
The heart was perfused for a period of 10 minutes and the perfusion solution was recycled through the heart. […] The heart was then weighed and the radioactivity in the heart measured with a Packard Cobra 5003 Gamma Scintillation counter. An aliquot of the K-H buffer was also weighed and counted. […]
The dual peptide gadolinium tetramer (Compound ID 803) was compared to GdDTPA. […] The amount of radioactivity added to the buffer solution was 1-5 μCi.

[6] = system: perfused Langendorff rat heart; assay: Washout kinetics from perfused Langendorff rat heart; conditions: 10 minutes perfusion with buffer after infusion
[7] = target: T1, rat type I collagen (Rattus norvegicus, UniProt P02454+P02466); assay: MR phantom imaging of collagen gel samples at 4.7 T; conditions: centrifuged samples 4 and 8, 4.7 T
T1 construct: Rat collagen (acid soluble, type I, rat tail); purchased Upstate USA, Inc 08-115; host or cells: rat tail
T1 sequence (P02454 152-1207 limits assumed): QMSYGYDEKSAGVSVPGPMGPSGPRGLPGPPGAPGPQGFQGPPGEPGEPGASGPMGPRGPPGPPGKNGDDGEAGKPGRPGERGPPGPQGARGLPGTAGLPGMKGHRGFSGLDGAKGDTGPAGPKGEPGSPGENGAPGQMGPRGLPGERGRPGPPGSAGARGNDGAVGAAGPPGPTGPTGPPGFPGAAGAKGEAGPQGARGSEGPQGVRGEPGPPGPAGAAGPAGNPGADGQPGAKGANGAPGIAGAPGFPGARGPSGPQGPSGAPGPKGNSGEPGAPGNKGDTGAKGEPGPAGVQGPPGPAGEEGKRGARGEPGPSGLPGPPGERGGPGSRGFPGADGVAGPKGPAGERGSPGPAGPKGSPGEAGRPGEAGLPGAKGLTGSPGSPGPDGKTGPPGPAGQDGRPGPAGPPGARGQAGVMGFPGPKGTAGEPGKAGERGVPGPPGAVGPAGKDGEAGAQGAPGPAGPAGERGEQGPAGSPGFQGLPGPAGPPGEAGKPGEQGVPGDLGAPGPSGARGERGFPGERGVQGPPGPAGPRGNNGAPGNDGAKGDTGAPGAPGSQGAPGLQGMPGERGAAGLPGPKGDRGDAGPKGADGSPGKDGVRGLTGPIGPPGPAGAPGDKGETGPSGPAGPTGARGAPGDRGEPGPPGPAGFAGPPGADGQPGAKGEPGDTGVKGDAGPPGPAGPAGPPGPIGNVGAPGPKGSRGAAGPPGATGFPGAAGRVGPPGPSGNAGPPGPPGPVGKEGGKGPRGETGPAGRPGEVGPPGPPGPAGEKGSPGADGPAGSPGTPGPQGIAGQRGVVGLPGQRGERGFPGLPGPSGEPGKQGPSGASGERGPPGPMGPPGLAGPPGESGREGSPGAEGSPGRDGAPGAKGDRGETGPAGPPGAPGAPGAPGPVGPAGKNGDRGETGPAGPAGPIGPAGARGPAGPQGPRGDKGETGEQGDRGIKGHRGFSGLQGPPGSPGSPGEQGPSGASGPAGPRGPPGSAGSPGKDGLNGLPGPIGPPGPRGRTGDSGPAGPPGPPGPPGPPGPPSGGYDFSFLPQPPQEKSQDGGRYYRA
T1 sequence (P02466 86-1125 limits assumed): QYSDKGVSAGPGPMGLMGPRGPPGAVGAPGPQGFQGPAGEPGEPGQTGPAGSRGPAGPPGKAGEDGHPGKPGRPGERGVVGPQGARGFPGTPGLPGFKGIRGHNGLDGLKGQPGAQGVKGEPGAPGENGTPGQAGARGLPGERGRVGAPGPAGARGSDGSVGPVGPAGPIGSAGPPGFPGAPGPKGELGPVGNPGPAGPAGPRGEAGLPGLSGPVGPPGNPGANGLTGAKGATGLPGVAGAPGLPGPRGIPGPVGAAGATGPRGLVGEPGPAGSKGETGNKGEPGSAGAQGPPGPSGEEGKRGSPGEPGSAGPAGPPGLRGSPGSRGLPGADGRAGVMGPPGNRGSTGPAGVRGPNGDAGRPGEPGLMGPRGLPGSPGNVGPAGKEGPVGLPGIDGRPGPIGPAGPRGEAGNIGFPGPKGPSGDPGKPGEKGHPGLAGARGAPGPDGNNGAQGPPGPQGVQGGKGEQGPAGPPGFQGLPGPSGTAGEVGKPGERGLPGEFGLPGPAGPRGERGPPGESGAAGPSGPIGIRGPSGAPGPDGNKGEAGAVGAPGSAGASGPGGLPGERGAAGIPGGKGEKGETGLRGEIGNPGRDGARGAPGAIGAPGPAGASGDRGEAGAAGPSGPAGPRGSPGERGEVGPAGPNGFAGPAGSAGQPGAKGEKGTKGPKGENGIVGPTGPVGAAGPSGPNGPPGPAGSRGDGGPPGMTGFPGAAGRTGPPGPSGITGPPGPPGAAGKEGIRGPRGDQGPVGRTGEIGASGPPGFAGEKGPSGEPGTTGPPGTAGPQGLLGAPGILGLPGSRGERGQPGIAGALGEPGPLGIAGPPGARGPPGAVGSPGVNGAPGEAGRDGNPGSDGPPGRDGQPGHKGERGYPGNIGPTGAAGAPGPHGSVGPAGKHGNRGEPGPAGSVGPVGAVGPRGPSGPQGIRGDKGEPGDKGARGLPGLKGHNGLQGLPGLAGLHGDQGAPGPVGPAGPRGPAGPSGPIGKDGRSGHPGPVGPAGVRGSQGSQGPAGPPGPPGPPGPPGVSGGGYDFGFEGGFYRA
Experimental: Samples: • 1. […] Sample prepared as sample 2, but centrifuged to separate insoluble rat collagen gel • 5. Sample prepared as sample 3, but centrifuged to separate insoluble human collagen gel • 6. 27 μM GdDTPA solution in PBS, pH 7.4 • 7. 27 μM GdDTPA in a solution of 5.0 μM rat type I collagen in 10 mM phosphate buffer, pH 5 incubated at 37° C. overnight to form a gel • 8. Sample prepared as in sample 7, but centrifuged to separate insoluble rat collagen gel • 9. Homogeneous gel of 5 μM rat collagen • 10. Homogeneous gel of 7.5 μM human collagen
Samples for imaging were placed in glass tubes that were in turn placed in tubes containing water. Images were acquired at 4.7 T on a Bruker Biospec Imager using a Multi-Slice Multi-Echo Method with variable Relaxation Delay (MSMEVTR) experiment. The spin echo time and the relaxation delay were set to TE=11.2 ms and TR=500 ms, respectively with a flip angle of 30°. Images were acquired of sample 2, sample 4, sample 7, and sample 8. […] Sample 7 and 8 show uniform signal intensity.

[8] = Biodistribution analysis in rats (heart and blood, radiotracer); type: in vivo, Sprague-Dawley rats; conditions: rat, 1 and 5 min post injection
Experimental: Concentration estimates were decay corrected. Studies were performed at least in duplicate.

[9] = target: T2, human collagen type I (acid soluble, extracted from placenta, Sigma C7774) (human, UniProt P02452 162-1218; P08123 80-1119); assay: dried collagen assay
T2 construct: gelled and dried as a fibril film in the assay; also called dried human collagen; h-Collagen
T2 sequence (P02452 162-1218 limits assumed, chain 1 of 2): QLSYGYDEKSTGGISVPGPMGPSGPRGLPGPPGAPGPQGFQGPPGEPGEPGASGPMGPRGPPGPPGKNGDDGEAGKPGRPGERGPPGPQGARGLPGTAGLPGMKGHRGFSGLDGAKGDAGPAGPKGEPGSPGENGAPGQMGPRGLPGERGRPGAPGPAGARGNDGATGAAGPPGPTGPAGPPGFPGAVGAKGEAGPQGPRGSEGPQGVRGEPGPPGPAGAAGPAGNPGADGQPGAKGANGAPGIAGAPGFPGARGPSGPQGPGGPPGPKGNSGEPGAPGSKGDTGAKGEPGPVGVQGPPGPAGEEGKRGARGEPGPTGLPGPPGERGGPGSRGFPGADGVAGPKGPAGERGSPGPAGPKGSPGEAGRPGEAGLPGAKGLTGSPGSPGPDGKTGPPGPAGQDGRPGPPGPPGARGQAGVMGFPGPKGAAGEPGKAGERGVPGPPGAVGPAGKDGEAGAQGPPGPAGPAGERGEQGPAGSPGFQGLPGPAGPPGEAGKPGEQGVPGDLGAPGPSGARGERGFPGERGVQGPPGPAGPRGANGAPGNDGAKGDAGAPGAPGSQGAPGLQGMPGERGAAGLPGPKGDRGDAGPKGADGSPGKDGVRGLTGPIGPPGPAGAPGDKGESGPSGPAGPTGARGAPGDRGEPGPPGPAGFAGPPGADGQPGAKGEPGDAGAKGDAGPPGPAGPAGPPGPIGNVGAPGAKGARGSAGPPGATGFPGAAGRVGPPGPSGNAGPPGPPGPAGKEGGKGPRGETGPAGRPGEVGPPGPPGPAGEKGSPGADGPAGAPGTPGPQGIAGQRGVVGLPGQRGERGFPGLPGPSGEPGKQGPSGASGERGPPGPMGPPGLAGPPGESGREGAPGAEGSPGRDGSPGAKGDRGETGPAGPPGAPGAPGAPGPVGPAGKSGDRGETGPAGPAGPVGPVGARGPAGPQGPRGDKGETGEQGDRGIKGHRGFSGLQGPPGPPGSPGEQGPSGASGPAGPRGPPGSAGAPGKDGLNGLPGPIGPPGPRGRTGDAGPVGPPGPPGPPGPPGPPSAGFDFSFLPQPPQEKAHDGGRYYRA
T2 sequence (P08123 80-1119 limits assumed, chain 2 of 2): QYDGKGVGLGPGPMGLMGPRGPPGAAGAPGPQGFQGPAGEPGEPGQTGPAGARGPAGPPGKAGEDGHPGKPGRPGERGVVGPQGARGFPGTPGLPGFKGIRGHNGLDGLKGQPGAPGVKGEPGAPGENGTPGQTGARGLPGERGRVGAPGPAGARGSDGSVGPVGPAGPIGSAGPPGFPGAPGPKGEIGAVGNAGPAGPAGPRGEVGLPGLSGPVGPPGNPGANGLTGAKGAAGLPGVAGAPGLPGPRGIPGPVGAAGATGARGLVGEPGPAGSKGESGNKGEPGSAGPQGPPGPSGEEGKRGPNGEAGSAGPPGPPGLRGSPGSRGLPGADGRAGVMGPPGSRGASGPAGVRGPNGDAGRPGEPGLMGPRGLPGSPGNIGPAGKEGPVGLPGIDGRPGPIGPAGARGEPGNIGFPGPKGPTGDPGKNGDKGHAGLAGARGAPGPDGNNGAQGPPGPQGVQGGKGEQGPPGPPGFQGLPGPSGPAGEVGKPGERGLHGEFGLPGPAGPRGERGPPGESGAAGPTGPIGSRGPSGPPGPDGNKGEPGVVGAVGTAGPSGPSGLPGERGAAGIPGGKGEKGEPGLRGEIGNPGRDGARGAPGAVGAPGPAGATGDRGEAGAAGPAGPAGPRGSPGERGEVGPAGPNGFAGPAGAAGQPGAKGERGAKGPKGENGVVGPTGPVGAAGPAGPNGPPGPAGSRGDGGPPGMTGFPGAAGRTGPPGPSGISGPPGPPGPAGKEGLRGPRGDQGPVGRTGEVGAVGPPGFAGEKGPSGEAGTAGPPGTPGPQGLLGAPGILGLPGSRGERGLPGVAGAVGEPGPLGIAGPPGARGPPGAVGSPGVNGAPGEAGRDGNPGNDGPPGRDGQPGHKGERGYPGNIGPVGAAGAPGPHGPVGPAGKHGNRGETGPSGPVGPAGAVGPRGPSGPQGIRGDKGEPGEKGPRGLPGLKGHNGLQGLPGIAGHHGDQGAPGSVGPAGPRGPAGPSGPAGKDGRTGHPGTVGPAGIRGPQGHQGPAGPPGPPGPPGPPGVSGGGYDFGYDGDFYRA

[10] = target: T3, rat collagen (acid soluble, type I, rat tail, Upstate 08-115) (rat, UniProt P02454 152-1207; P02466 86-1125); assay: dried collagen assay
T3 construct: also called dried rat collagen; insoluble rat collagen
T3 sequence (P02454 152-1207 limits assumed, chain 1 of 2): as the sequence (P02454 152-1207 limits assumed) above
T3 sequence (P02466 86-1125 limits assumed, chain 2 of 2): as the sequence (P02466 86-1125 limits assumed) above

[11] = target: T2, human collagen type I (acid soluble, …); assay: dried collagen assay; remark: listed apart in the source
Experimental: (§1) An additional 90 μL is reserved in a HPLC glass vial as a measure of the total concentration.

[12] = target: T3, rat collagen (acid soluble, type I, rat …); assay: dried collagen assay; remark: listed apart in the source
Experimental: as §1

[13] = target: T2, human collagen type I (acid soluble, …); assay: dried collagen assay; remark: listed apart in the source
[14] = target: T3, rat collagen (acid soluble, type I, rat …); assay: dried collagen assay; remark: listed apart in the source
[15] = 40 day old infarcts, 50 min post-injection, two animals, listed as Compound ID NO. 800

Molecule: CC(C)C[C@H](NC(=O)[C@@H]1CSSC[C@H](NC(=O)[C@H](Cc2c[nH]cn2)NC(=O)[C@H](Cc2c[nH]c3ccccc23)NC(=O)[C@H](CCCCNC(=O)CNC(=S)Nc2ccc(C[C@@H](CN(CCN(CC(=O)O)CC(=O)O)CC(=O)O)N(CC(=O)O)CC(=O)O)cc2)NC(=O)CNC(=S)Nc2ccc(C[C@@H](CN(CCN(CC(=O)O)CC(=O)O)CC(=O)O)N(CC(=O)O)CC(=O)O)cc2)C(=O)N[C@@H]([C@@H](C)O)C(=O)N[C@@H]([C@@H](C)O)C(=O)N[C@@H](CCCCNC(=S)Nc2ccc(C[C@@H](CN(CCN(CC(=O)O)CC(=O)O)CC(=O)O)N(CC(=O)O)CC(=O)O)cc2)C(=O)N[C@@H](Cc2ccccc2)C(=O)N2CCC[C@H]2C(=O)N[C@@H](Cc2c[nH]cn2)C(=O)N[C@@H](Cc2c[nH]cn2)C(=O)N[C@@H](Cc2ccc(O)cc2)C(=O)N1)C(=O)N[C@@H](Cc1ccc(O)cc1)C(=O)N[C@@H](Cc1ccc(-c2ccccc2)cc1)C(N)=O [Compound ID 800]
- persistence of myocardial enhancement [1]: at least 1 hour
- enhancement of the myocardium ([1]; 4.7-T): positive enhancement of the myocardium
- enhancement of myocardium and infarcted zones [2]: positive enhancement of the myocardium and hyperenhancement of infarcted zones
- persistence of enhancement [2]: at least 1 hour
- retention of gadolinium in the heart [3]: ≥ 30 min
- Gadolinium concentration in the heart ([3]; 1 minute post injection): 23.9±7.8
- MR enhancement of infarct zone versus viable myocardium ([4]; 7 day, 40 day or 210 day infarcts, 25 μmol/kg intravenous): infarct zone as hyperintense relative to the normal, viable myocardium
- gadolinium concentration, blood [4, 15]: 27.8 nmol Gd/g and 14.6 nmol Gd/g
- tissue gadolinium concentration, scar [4, 15]: 137 nmol Gd/g and 122 nmol Gd/g

- specific heart uptake ([5]; Buffer 3.0 μM): no specific uptake
Molecule: Q W T C S G D E Y T w H C N Y E (GQWTCSGDEYT[dW]HCNYE; disulfide 5-14 (inferred)) [SEQ ID NO: 173, -G- Linker at the N-terminus]

Molecule: O=C([O-])CN(CCN(CC(=O)[O-])CC(=O)O)CCN(CC(=O)[O-])CC(=O)O.[Gd+3] [GdDTPA, gadolinium diethylenetriaminepentaacetate]
- percent of compound present at 0 minutes post infusion that remains at 10 minutes [6]: 0.5% and 2.2%
- signal of centrifuged collagen gel relative to supernatant [7]: no increased concentration of GdDTPA in the gel relative to the supernatant

- heart uptake compared with GdDTPA ([5]; perfused 10 minutes, recycled): about 10 times
Molecule: Q W T C S G D A Y T W H C N Y E (GQWTCSGDAYTWHCNYE; disulfide 5-14 (inferred)) [SEQ ID NO: 144, -G- Linker at the N-terminus]
- heart uptake relative to GdDTPA control [8]: positive uptake in the heart relative to the GdDTPA negative control
- percent of compound present at 0 minutes post infusion that remains at 10 minutes [6]: 68%

- % bound [9]: 71%
- % bound [10]: 71%
B1: SEQ ID NO: 122 (peptide)
peptide: GQWTCSGDEYTWHCNYE
modifications: disulfide 5-14 (inferred)

- % bound [11]: 9%
- % bound [12]: 24%
B2: SEQ ID NO: 106 (peptide)
peptide: YHACYQAGCWIY
modifications: disulfide 4-9 (inferred)

- % bound [13]: 45%
B3: Comp ID 951 (peptide)
peptide: {Gd^T″}-GK([Gly-Gd^T″])WHCTTYFPHH[Bip]CLYG
modifications: disulfide 5-14; not fully specified (C-terminus); printed as Gd^T-G-K(G.Gd^T)-WHCTTYFPHH-Bip-CLYG

- % bound [13]: 46%
- % bound [14]: 37%
B4: Comp ID 869 (peptide)
peptide: GQWHCTTSFPHHYCLYG
modifications: not fully specified; Gd^T-GQWHCTTSFPHHYCLYG

- % bound [13]: 4%
B5: Comp ID 897 (peptide)
peptide: {Gd^T}-GQWHCT[dN]RFPHHYCLYG
modifications: disulfide 5-14 (inferred); not fully specified (C-terminus); printed as Gd^T-GQWHCTnRFPHHYCLYG; reading uncertain

- % bound [13]: 5%
B6: Comp ID 898 (peptide)
peptide: {Gd^T}-GQWHCT[dS]RFPHHYCLYG
modifications: disulfide 5-14 (inferred); not fully specified (C-terminus); printed as Gd^T-GQWHCTsRFPHHYCLYG; reading uncertain

- % bound [13]: 4%
B7: Comp ID 900 (peptide)
peptide: {Gd^T}-GQWHCT[dR]RFPHHYCLYG
modifications: disulfide 5-14 (inferred); not fully specified (C-terminus); printed as Gd^T-GQWHCTrRFPHHYCLYG; reading uncertain

- % bound [9]: 59%
- % bound [10]: 72%
B8: SEQ ID NO: 123 (peptide)
peptide: GQWTCSGDEYTWHCNY
modifications: disulfide 5-14 (inferred)

- % bound [11]: 10%
- % bound [12]: 2%
B9: SEQ ID NO: 110 (peptide)
peptide: YSACYQAGCYIY
modifications: disulfide 4-9 (inferred)

- % bound [11]: 21%
- % bound [12]: 37%
B10: SEQ ID NO: 109 (peptide)
peptide: YSACYQAGCWIW
modifications: disulfide 4-9 (inferred)

- % bound [13]: 4%
- % bound [14]: 5%
B11: Comp ID 939 (peptide)
peptide: Cbz-GQWHCT[Dap](Gd^T″)RFPHHYCLYG
modifications: disulfide 5-14; not fully specified (C-terminus); printed as cbz-GQWHCT-Dpr(Gd^T)-RFPHHYCLYG
